Assay [1] addresses MSA-hLoopI + II (MSA N83T/L87M/S111N/P114R) with C-terminal GST (mouse). The experiment in a line: SPR; Biacore T200; albumin variants amine-coupled on CM5 (~200 or 500 RU); monomeric His-tagged hFcRn or mFcRn injected in serial dilutions; phosphate buffer (177 mM phosphate, 85 mM NaCl, 0.05% Tween 20) pH 5.5, 30 µl/min, 25 °C; 1:1 Langmuir model. On the technique in general: In SPR one partner is held on a chip, and binding of the other changes the refractive index at the surface.

Assay [2] addresses DIII of MSA (residues 381-584) with C-terminal GST (mouse). The assay is described as above.
Assay [3] has as its target MSA-hDI (MSA with human DI, residues 1-190 from HSA) with C-terminal GST (human | mouse). Described as above.
The target in assay [4] is HSA K573P with C-terminal GST (human). The description is as above.
The target in assay [5] is wild-type mouse serum albumin with C-terminal GST (mouse). Put plainly: SPR; albumin immobilised (200 RU) on CM5 chip by amine coupling, serial dilutions of monomeric His-tagged FcRn injected; pH 5.5, 0.005% Tween20, 30 µl/min, 25 °C; 1:1 Langmuir model.
wild-type mouse serum albumin with C-terminal GST (mouse), sequence (P07724 25-608): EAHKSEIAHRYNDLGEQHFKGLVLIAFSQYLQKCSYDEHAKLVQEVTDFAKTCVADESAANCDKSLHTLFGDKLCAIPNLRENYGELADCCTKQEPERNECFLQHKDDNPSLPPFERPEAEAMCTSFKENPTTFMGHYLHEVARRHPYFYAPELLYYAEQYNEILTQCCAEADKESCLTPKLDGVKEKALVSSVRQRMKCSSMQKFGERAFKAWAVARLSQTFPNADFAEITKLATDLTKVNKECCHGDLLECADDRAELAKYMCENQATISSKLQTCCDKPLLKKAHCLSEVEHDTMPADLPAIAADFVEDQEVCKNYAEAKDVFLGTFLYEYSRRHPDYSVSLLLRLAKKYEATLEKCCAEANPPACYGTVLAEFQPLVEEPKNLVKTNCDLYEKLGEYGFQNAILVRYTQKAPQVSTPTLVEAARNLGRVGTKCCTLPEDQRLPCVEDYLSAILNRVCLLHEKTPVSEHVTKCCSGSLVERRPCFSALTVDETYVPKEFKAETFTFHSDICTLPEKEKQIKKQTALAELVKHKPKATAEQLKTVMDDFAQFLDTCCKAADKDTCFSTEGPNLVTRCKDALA
In assay [6] the target is MSA P573K with C-terminal GST (mouse). Put plainly: SPR; Biacore T200; albumin variants amine-coupled on CM5 (~200 or 500 RU); monomeric His-tagged hFcRn or mFcRn injected in serial dilutions; phosphate buffer (177 mM phosphate, 85 mM NaCl, 0.05% Tween 20) pH 5.5, 30 µl/min, 25 °C; 1:1 Langmuir model.
In assay [7] the target is HSA-mDI (HSA with mouse DI, residues 1-190 from MSA) with C-terminal GST (mouse | human). The description is as above.
Assay [8] has as its target HSA R114P with C-terminal GST (human). The assay is described as above.
In assay [9] the target is HSA N111S with C-terminal GST (human). Described as above.
For assay [10], the target named is DIII of HSA (residues 381-585) with C-terminal GST (human). The description is as above.
Assay [11] concerns the target HSA-mLoopI + II (HSA T83N/M87L/N111S/R114P) with C-terminal GST (human). The description is as above.

As usually defined, the Kd is the equilibrium constant for the complex coming apart. Usually koff stands for the first-order rate constant of dissociation. As usually defined, the kon is the second-order rate constant of association. For “soluble monomeric His-tagged mouse neonatal Fc receptor (mFcRn) (from UniProt Q61559 22-297; P01887 21-119)”, the equilibrium dissociation constant (Kd) was determined as 0.375 µM in assay [1], 0.62 µM in assay [2], 0.705 µM in assay [3] and 1.23 µM in assay [4]. For the same substance, the koff in [1] was found to be 0.0075 s⁻¹; in assay [2], 0.0093 s⁻¹; in assay [3], 0.0148 s⁻¹; in assay [4], 0.0197 s⁻¹. For the same substance, the kon in assay [1] was found to be 20000 M⁻¹ s⁻¹; in [2] it was 15000 M⁻¹ s⁻¹; in assay [3] it was 21000 M⁻¹ s⁻¹; in assay [4] it was 16000 M⁻¹ s⁻¹.

In assay [5], “soluble mouse neonatal Fc receptor (mFcRn), His-tagged, monomeric (from UniProt Q61559 22-365; P01887 21-119)” gave a Kd of 0.324 µM, a koff of 0.0123 s⁻¹ and an on-rate constant (kon) of 38000 M⁻¹ s⁻¹.

For the substance “soluble monomeric His-tagged human neonatal Fc receptor (hFcRn) (from UniProt P55899 24-297; P61769 21-119)”, the Kd in assay [6] amounted to 3.67 µM; in assay [7], 1.44 µM; in assay [8], 0.554 µM; in assay [1] it was 0.145 µM; in [9], 0.162 µM; in [2] it was 0.119 µM. The equilibrium dissociation constant (Kd) came out at 3.17 µM in assay [10], 0.0702 µM in [3], 0.823 µM in [11] and 0.0222 µM in [4]. Moreover, the koff amounted to 0.0734 s⁻¹ in [6]; 0.0202 s⁻¹ in [7]; 0.0122 s⁻¹ in assay [8]; 0.0074 s⁻¹ in assay [1]; 0.006 s⁻¹ in assay [9]; 0.0057 s⁻¹ in assay [2]. The koff worked out at 0.0349 s⁻¹ in assay [10], 0.0047 s⁻¹ in assay [3], 0.0214 s⁻¹ in [11] and 0.0006 s⁻¹ in [4]. Also, the kon stood at 20000 M⁻¹ s⁻¹ in assay [6]; 14000 M⁻¹ s⁻¹ in assay [7]; 22000 M⁻¹ s⁻¹ in [8]; 51000 M⁻¹ s⁻¹ in assay [1]; 37000 M⁻¹ s⁻¹ in assay [9]; 48000 M⁻¹ s⁻¹ in assay [2]. Moreover, the kon in assay [10] came out at 11000 M⁻¹ s⁻¹; in assay [3], 67000 M⁻¹ s⁻¹; in assay [11], 26000 M⁻¹ s⁻¹; in assay [4] it was 27000 M⁻¹ s⁻¹.

For the origin of these results see paper PMC6168492.
